One block for each binder: values may come before it.
Target: human V1a receptor (human) (UniProt P37288)
Assay: cell-based or functional assay

Chain of human V1a receptor (human) (P37288 whole entry): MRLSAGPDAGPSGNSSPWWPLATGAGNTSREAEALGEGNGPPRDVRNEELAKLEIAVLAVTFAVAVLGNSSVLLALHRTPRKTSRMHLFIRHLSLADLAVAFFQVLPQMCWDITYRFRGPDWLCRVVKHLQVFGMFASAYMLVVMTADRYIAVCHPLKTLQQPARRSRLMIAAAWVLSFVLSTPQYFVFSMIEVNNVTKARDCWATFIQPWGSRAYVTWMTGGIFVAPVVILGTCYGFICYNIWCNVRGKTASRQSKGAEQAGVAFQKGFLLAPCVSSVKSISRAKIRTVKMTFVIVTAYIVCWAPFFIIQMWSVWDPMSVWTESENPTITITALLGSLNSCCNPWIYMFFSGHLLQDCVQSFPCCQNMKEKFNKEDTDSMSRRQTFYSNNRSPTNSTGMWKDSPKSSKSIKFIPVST

B1: Mpa-Tyr-Phe-Hgn-Asn-Cys-Pro-Lys(X)-Gly-NH2; X = Gly [SEQ ID NO. 8] (peptide)
peptide: XFXNCPXG
modifications: Mpa at position 1, disulfide bond between Mpa and Cys; Hgn at position 4; Gly on the side chain of Lys 8; C-terminal amide
Estimated V1a EC50 (calcium flux): 25.3 nM
V1a Highest agonist effect (% of AVP): 40.3 % of AVP

B2: Mpa-Tyr-Phe-Hgn-Asn-Cys-Pro-Lys(X)a-Gly-NH2; (X)a = (Gly)3 [SEQ ID NO. 10] (peptide)
peptide: XFXNCPXG
modifications: Mpa at position 1, disulfide bond between Mpa and Cys; Hgn at position 4; (Gly)3 on the side chain of Lys 8; C-terminal amide
Estimated V1a EC50 (calcium flux): 53.5 nM
V1a Highest agonist effect (% of AVP): 32.9 % of AVP

B3: Mpa-Tyr-Phe-Hgn-Asn-Cys-Pro-Lys(X)a-Gly-NH2; (X)a = (Gly)2 [SEQ ID NO. 9] (peptide)
peptide: XFXNCPXG
modifications: Mpa at position 1, disulfide bond between Mpa and Cys; Hgn at position 4; (Gly)2 on the side chain of Lys 8; C-terminal amide
Estimated V1a EC50 (calcium flux): 38.2 nM
V1a Highest agonist effect (% of AVP): 37 % of AVP

B5: Mpa-Tyr-Phe-Hgn-Asn-Cys-Pro-Lys(X)a-Gly-NH2; (X)a = (Gly)4 [SEQ ID NO. 11] (peptide)
peptide: XFXNCPXG
modifications: Mpa at position 1, disulfide bond between Mpa and Cys; Hgn at position 4; (Gly)4 on the side chain of Lys 8; C-terminal amide
Estimated V1a EC50 (calcium flux): 161 nM
V1a Highest agonist effect (% of AVP): 33.6 % of AVP

B7: Mpa-Tyr-Phe-Hgn-Asn-Cys-Pro-Lys(X)a-Gly-NH2; (X)a = (Gly)5 [SEQ ID NO. 12] (peptide)
peptide: XFXNCPXG
modifications: Mpa at position 1, disulfide bond between Mpa and Cys; Hgn at position 4; (Gly)5 on the side chain of Lys 8; C-terminal amide
Estimated V1a EC50 (calcium flux): 50.1 nM
V1a Highest agonist effect (% of AVP): 29.6 % of AVP

More lines, now with the values ahead:

Estimated V1a EC50 (calcium flux): 30.9 nM
V1a Highest agonist effect (% of AVP): 26.1 % of AVP
B4: Mpa-Tyr-Phe-Hgn-Asn-Cys-Pro-Lys(X)a-Gly-NH2; (X)a = (Gly)7 [SEQ ID NO. 14] (peptide)
peptide: XFXNCPXG
modifications: Mpa at position 1, disulfide bond between Mpa and Cys; Hgn at position 4; (Gly)7 on the side chain of Lys 8; C-terminal amide

Estimated V1a EC50 (calcium flux): 105 nM
V1a Highest agonist effect (% of AVP): 28.1 % of AVP
B6: Mpa-Tyr-Phe-Hgn-Asn-Cys-Pro-Lys(X)a-Gly-NH2; (X)a = (Gly)9 [SEQ ID NO. 16] (peptide)
peptide: XFXNCPXG
modifications: Mpa at position 1, disulfide bond between Mpa and Cys; Hgn at position 4; (Gly)9 on the side chain of Lys 8; C-terminal amide

Estimated V1a EC50 (calcium flux): 45.9 nM
V1a Highest agonist effect (% of AVP): 28.2 % of AVP
B8: Mpa-Tyr-Phe-Hgn-Asn-Cys-Pro-Lys(X)a-Gly-NH2; (X)a = (Gly)6 [SEQ ID NO. 13] (peptide)
peptide: XFXNCPXG
modifications: Mpa at position 1, disulfide bond between Mpa and Cys; Hgn at position 4; (Gly)6 on the side chain of Lys 8; C-terminal amide

Estimated V1a EC50 (calcium flux): 226 nM
V1a Highest agonist effect (% of AVP): 24.8 % of AVP
B9: Mpa-Tyr-Phe-Hgn-Asn-Cys-Pro-Lys(X)a-Gly-NH2; (X)a = (Gly)8 [SEQ ID NO. 15] (peptide)
peptide: XFXNCPXG
modifications: Mpa at position 1, disulfide bond between Mpa and Cys; Hgn at position 4; (Gly)8 on the side chain of Lys 8; C-terminal amide
